Assay results from patent US20130078661.
Substitutions are numbered along the chain they refer to.

Key:
[1] = target: Mutant VWF-A2 FRET protein with Cysteine to Glycine at positions 1669 and 1670 (CC1669-70GG)
[2] = target: T1, XS-VWF(AA) (XS-VWF with Y1605-M1606 replaced by A1605-A1606)
T1 chain: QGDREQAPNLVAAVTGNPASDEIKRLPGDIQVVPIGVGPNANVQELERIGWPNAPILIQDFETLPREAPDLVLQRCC

[3] = target: T2, M-VWF (Venus - VWF 1530-1670 - Cerulean - His tag FRET protein)
T2 chain: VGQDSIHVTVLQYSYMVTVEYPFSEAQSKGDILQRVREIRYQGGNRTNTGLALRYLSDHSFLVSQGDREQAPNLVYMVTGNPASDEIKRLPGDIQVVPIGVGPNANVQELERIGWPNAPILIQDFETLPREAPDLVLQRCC

[4] = target: T3, L-VWF (Venus - VWF 1496-1670 - Cerulean - His tag FRET protein)
T3 chain: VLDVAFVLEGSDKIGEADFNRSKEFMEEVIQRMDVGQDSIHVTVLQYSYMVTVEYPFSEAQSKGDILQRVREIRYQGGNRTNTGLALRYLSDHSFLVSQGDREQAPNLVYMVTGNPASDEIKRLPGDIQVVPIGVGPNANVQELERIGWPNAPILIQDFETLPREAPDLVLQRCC

[5] = target: T4, XS-VWF (Venus - VWF 1594-1670 - Cerulean - His tag FRET protein)
T4 chain: T1 chain with A12Y, A13M

[6] = target: Multimeric human plasma VWF
[7] = target: T5, S-VWF (Venus - VWF 1558-1670 - Cerulean - His tag FRET protein)
T5 chain: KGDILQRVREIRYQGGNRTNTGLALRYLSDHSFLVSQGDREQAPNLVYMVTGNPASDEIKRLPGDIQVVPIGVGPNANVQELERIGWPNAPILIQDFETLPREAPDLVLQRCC

[8] = target: Mutant VWF-A2 FRET protein with a change at Pro1645 (P1645A)

B1: Recombinant human ADAMTS13 (protein)
chain: AAGGILHLELLVAVGPDVFQAHQEDTERYVLTNLNIGAELLRDPSLGAQFRVHLVKMVILTEPEGAPNITANLTSSLLSVCGWSQTINPEDDTDPGHADLVLYITRFDLELPDGNRQVRGVTQLGGACSPTWSCLITEDTGFDLGVTIAHEIGHSFGLEHDGAPGSGCGPSGHVMASDGAAPRAGLAWSPCSRRQLLSLLSAGRARCVWDPPRPQPGSAGHPPDAQPGLYYSANEQCRVAFGPKAVACTFAREHLDMCQALSCHTDPLDQSSCSRLLVPLLDGTECGVEKWCSKGRCRSLVELTPIAAVHGRWSSWGPRSPCSRSCGGGVVTRRRQCNNPRPAFGGRACVGADLQAEMCNTQACEKTQLEFMSQQCARTDGQPLRSSPGGASFYHWGAAVPHSQGDALCRHMCRAIGESFIMKRGDSFLDGTRCMPSGPREDGTLSLCVSGSCRTFGCDGRMDSQQVWDRCQVCGGDNSTCSPRKGSFTAGRAREYVTFLTVTPNLTSVYIANHRPLFTHLAVRIGGRYVVAGKMSISPNTTYPSLLEDGRVEYRVALTEDRLPRLEEIRIWGPLQEDADIQVYRRYGEEYGNLTRPDITFTYFQPKPRQAWVWAAVRGPCSVSCGAGLRWVNYSCLDQARKELVETVQCQGSQQPPAWPEACVLEPCPPYWAVGDFGPCSASCGGGLRERPVRCVEAQGSLLKTLPPARCRAGAQQPAVALETCNPQPCPARWEVSEPSSCTSAGGAGLALENETCVPGADGLEAPVTEGPGSVDEKLPAPEPCVGMSCPPGWGHLDATSAGEKAPSPWGSIRTGAQAAHVWTPAAGSCSVSCGRGLMELRFLCMDSALRVPVQEELCGLASKPGSRREVCQAVPCPARWQYKLAACSVSCGRGVVRRILYCARAHGEDDGEEILLDTQCQGLPRPEPQEACSLEPCPPRWKVMSLGPCSASCGLGTARRSVACVQLDQGQDVEVDEAACAALVRPEASVPCLIADCTYRWHVGTWMECSVSCGDGIQRRRDTCLGPQAQAPVPADFCQHLPKPVTVRGCWAGPCVGQGTPSLVPHEEAAAPGRTTATPAGASLEWSQARGLLFSPAPQPRRLLPGPQENSVQSSACGRQHLEPTGTIDMRGPGQADCAVAIGRPLGEVVTLRVLESSLNCSAGDMLLLWGRLTWRKMCRKLLDMTFSSKTNTLVVRQRCGRPGGGVLLRYGSQLAPETFYRECDMQLFGPWGEIVSPSLSPATSNAGGCRLFINVAPHARIAIHALATNMGAGTEGANASYILIRDTHSLRTTAFHGQQVLYWESESSQAEMEFSEGFLKAQASLRGQYWTLQSWVPEMQDPQSWKGKEGT
[1]
  cleavage in 1M urea, western blot: substitution of Cysteine by Glycine at positions 1669 and 1670 enhances VWF A2 domain proteolysis
[2]
  FRET ratio after 1 h with ADAMTS13, no denaturant: There was very little change in the FRET ratio of ... XS-VWF(AA)
  cleavage, western blot with anti-his pAb: XS-VWF but not XS-VWF(AA) was cleaved by recombinant ADAMTS13
[3]
  FRET ratio after 1 h with ADAMTS13, no denaturant: There was very little change in the FRET ratio of M-VWF
  extent of cleavage, no urea: In the absence of urea, the extent of cleavage of both L- and M-VWF was 20%
  proteolysis at 1.6M urea: Increasing urea concentration to 1.6M resulted in 30% proteolysis
[4]
  FRET ratio after 1 h with ADAMTS13, no denaturant: There was very little change in the FRET ratio of ... L-VWF
  cleavage at 2M urea after pre-denaturation with 4M urea: >90% cleavage of L-VWF was observed at 2M urea upon inclusion of the pre-denaturation step
  extent of cleavage, no urea: In the absence of urea, the extent of cleavage of both L- and M-VWF was 20%
  proteolysis at 1.6M urea: Increasing urea concentration to 1.6M resulted in 30% proteolysis
[5]
  FRET ratio after 1 h with ADAMTS13, no denaturant: FRET ratio increased from 0.78 to 1.73 for XS-VWF
  cleavage, western blot with anti-his pAb: XS-VWF but not XS-VWF(AA) was cleaved by recombinant ADAMTS13
  extent of cleavage (FRET ratio and western blot), varying urea: Complete cleavage of XS-VWF and S-VWF was observed at urea concentrations <2.8M
[6]
  cleavage after pre-denaturation with 4M urea, western blot: Proteolysis was however complete at urea>2.4M, provided a pre-denaturation step was included
  cleavage without pre-denaturation, western blot: multimeric VWF was also not fully cleaved when the protein was incubated with varying urea concentrations and ADAMTS13
[7]
  FRET ratio after 1 h with ADAMTS13, no denaturant: from 1.24 to 1.84 for S-VWF
  extent of cleavage (FRET ratio and western blot), varying urea: Complete cleavage of XS-VWF and S-VWF was observed at urea concentrations <2.8M
[8]
  cleavage in 1M urea, western blot: changes in the Pro1645 site enhances VWF cleavage even in the presence of low concentrations of urea that are insufficient to cleave the wild-type protein

B2: ADAMTS13 in human plasma (protein)
chain: B1 chain
[1]
  cleavage by FRET, 20% human plasma, 2 hours, 2M urea: higher cleavage of mutant VWF proteins compared to the wild-type molecule upon addition of low concentrations of urea
[5]
  KM: 4.6 µM and KM=4 µM
  kcat: 0.747 s⁻¹
[7]
  KM: 1.8 µM
  kcat: 0.295 s⁻¹
[8]
  cleavage by FRET, 20% human plasma, 2 hours, 2M urea: higher cleavage of mutant VWF proteins compared to the wild-type molecule upon addition of low concentrations of urea
